Data taken from patent US20200231652A1.

Tests used:
[1] = target: TGF-β1 (UniProt P01137); experiment: cell-based or functional assay
[2] = target: TGF-β2 (UniProt P61812); experiment: cell-based or functional assay
[3] = target: TGF-β3 (UniProt P10600); experiment: cell-based or functional assay
[4] = target: TGF-β1 (UniProt P01137)

Chain of TGF-β3 (P10600 301-412 limits assumed): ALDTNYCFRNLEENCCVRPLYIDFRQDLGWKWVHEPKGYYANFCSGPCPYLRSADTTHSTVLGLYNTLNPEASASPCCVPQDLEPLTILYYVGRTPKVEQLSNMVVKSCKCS
Chain of TGF-β2 (P61812 303-414 limits assumed): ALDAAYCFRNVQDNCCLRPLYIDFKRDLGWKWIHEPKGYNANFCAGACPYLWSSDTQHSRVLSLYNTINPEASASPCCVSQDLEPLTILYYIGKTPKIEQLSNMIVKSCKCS
Chain of TGF-β1 (P01137 279-390 limits assumed): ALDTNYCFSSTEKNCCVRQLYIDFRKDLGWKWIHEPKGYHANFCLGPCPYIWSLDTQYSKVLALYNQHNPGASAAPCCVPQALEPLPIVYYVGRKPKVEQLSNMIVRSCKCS

B1: FC5-Fc-T2m (Fc fusion)
chain: EVQLQASGGGLVQAGGSLRLSCAASGFKITHYTMGWFRQAPGKEREFVSRITWGGDNTFYSNSVKGRFTISRDNAKNTVYLQMNSLKPEDTADYYCAAGSTSTATPLRVDYWGKGTQVTVSSASEPRGPTIKPCPPCKCPAPNLLGGPSVFIFPPKIKDVLMISLSPIVTCVVVDVSEDDPDVQISWFVNNVEVHTAQTQTHREDYNSTLRVVSALPIQHQDWMSGKEFKCKVNNKDLPAPIERTISKPKGSVRAPQVYVLPPPEEEMTKKQVTLTCMVTDFMPEDIYVEWTNNGKTELNYKNTEPVLDSDGSYFMYSKLRVEKKNWVERNSYSCSVVHEGLHNHHTTKSFSRTPGTGIPPHVQKSVNNDMIVTDNNGAVKFPQLCKFCDVRFSTCDNQKSCMSNCSITSICEKPQEVCVAVWRKNDENITLETVCHDPKLPYHDFILEDAASPKCIMKEKKKPGETFFMCSCSSDECNDNIIFSEEYNTSNPD
- Av IC50, TGF-β neutralization, Mv1Lu cell luciferase reporter assay [1]: 0.017 pM
- Av IC50, TGF-β neutralization, Mv1Lu cell luciferase reporter assay [2]: 433 nM
- Av IC50, TGF-β neutralization, Mv1Lu cell luciferase reporter assay [3]: 0.015 pM

B2: hIgG2Fc-CCCC-T22d35 fusion (Fc fusion)
chain: ERKCCVECPPCPAPPVAGPSVFLFPPKPKDTLMISRTPEVTCVVVDVSHEDPEVQFNWYVDGVEVHNAKTKPREEQFNSTFRVVSVLTVVHQDWLNGKEYKCKVSNKGLPAPIEKTISKTKGQPREPQVYTLPPSREEMTKNQVSLTCLVKGFYPSDISVEWESNGQPENNYKTTPPMLDSDGSFFLYSKLTVDKSRWQQGNVFSCSVMHEALHNHYTQKSLSLSPGKIPPHVQKSVNNDMIVTDNNGAVKFPQLCKFCDVRFSTCDNQKSCMSNCSITSICEKPQEVCVAVWRKNDENITLETVCHDPKLPYHDFILEDAASPKCIMKEKKKPGETFFMCSCSSDECNDNIIFSEEYNTSNPDIPPHVQKSVNNDMIVTDNNGAVKFPQLCKFCDVRFSTCDNQKSCMSNCSITSICEKPQEVCVAVWRKNDENITLETVCHDPKLPYHDFILEDAASPKCIMKEKKKPGETFFMCSCSSDECNDNIIFSEEYNTSNPD
- Fold Change Fc-T2m, A549 cell IL-11 release assay [table] [4]: 9 fold
- Fold Change T22d35, A549 cell IL-11 release assay [table] [4]: 94 fold
- IC50, A549 cell IL-11 release assay [table] [4]: 6.17 pM
- Av IC50, TGF-β neutralization, Mv1Lu cell luciferase reporter assay [1]: 1.45 pM
- IC50, A549 cell IL-11 release assay [1]: 5 pM
- Av IC50, TGF-β neutralization, Mv1Lu cell luciferase reporter assay [2]: 108 nM
- Av IC50, TGF-β neutralization, Mv1Lu cell luciferase reporter assay [3]: 0.026 pM

B3: FC5-Fc-T22d35 (Fc fusion)
chain: EVQLQASGGGLVQAGGSLRLSCAASGFKITHYTMGWFRQAPGKEREFVSRITWGGDNTFYSNSVKGRFTISRDNAKNTVYLQMNSLKPEDTADYYCAAGSTSTATPLRVDYWGKGTQVTVSSASEPRGPTIKPCPPCKCPAPNLLGGPSVFIFPPKIKDVLMISLSPIVTCVVVDVSEDDPDVQISWFVNNVEVHTAQTQTHREDYNSTLRVVSALPIQHQDWMSGKEFKCKVNNKDLPAPIERTISKPKGSVRAPQVYVLPPPEEEMTKKQVTLTCMVTDFMPEDIYVEWTNNGKTELNYKNTEPVLDSDGSYFMYSKLRVEKKNWVERNSYSCSVVHEGLHNHHTTKSFSRTPGTGIPPHVQKSVNNDMIVTDNNGAVKFPQLCKFCDVRFSTCDNQKSCMSNCSITSICEKPQEVCVAVWRKNDENITLETVCHDPKLPYHDFILEDAASPKCIMKEKKKPGETFFMCSCSSDECNDNIIFSEEYNTSNPDIPPHVQKSVNNDMIVTDNNGAVKFPQLCKFCDVRFSTCDNQKSCMSNCSITSICEKPQEVCVAVWRKNDENITLETVCHDPKLPYHDFILEDAASPKCIMKEKKKPGETFFMCSCSSDECNDNIIFSEEYNTSNPD
- Fold Change Fc-T2m, A549 cell IL-11 release assay [table] [4]: 10 fold
- Fold Change T22d35, A549 cell IL-11 release assay [table] [4]: 101 fold
- IC50, A549 cell IL-11 release assay [table] [4]: 5.73 pM
- Av IC50, TGF-β neutralization, Mv1Lu cell luciferase reporter assay [1]: 0.001 pM
- IC50, A549 cell IL-11 release assay [1]: 5 pM
- Av IC50, TGF-β neutralization, Mv1Lu cell luciferase reporter assay [2]: 96.2 nM
- Av IC50, TGF-β neutralization, Mv1Lu cell luciferase reporter assay [3]: 0.001 pM
